Data on six substances can be found in patent US20130231265A1.

Data set [1] relates to Syk biosensor peptide GGDEEDYEEPDEPGGKbiotinGG-betaNpa-RKKRRQRRR (SAStide biosensor).
For data set [2], the system named is T1, Abl artificial substrate peptide, GGDEDDNDEVAYQAPFEDGGKbiotinGG.
T1 sequence: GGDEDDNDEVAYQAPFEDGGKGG

Data set [3] deals with Syk biosensor peptide …biotinGG-betaNpa-… (SAStide biosensor). Briefly: cell-based or functional assay.
The subject of data set [4] is T2, Src family artificial substrate peptide A, GGEEDEDIYEELDEPGGKbiotinGG.
T2 sequence: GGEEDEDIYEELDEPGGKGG

Chain of Recombinant Abl kinase (Millipore) (P00519 whole entry): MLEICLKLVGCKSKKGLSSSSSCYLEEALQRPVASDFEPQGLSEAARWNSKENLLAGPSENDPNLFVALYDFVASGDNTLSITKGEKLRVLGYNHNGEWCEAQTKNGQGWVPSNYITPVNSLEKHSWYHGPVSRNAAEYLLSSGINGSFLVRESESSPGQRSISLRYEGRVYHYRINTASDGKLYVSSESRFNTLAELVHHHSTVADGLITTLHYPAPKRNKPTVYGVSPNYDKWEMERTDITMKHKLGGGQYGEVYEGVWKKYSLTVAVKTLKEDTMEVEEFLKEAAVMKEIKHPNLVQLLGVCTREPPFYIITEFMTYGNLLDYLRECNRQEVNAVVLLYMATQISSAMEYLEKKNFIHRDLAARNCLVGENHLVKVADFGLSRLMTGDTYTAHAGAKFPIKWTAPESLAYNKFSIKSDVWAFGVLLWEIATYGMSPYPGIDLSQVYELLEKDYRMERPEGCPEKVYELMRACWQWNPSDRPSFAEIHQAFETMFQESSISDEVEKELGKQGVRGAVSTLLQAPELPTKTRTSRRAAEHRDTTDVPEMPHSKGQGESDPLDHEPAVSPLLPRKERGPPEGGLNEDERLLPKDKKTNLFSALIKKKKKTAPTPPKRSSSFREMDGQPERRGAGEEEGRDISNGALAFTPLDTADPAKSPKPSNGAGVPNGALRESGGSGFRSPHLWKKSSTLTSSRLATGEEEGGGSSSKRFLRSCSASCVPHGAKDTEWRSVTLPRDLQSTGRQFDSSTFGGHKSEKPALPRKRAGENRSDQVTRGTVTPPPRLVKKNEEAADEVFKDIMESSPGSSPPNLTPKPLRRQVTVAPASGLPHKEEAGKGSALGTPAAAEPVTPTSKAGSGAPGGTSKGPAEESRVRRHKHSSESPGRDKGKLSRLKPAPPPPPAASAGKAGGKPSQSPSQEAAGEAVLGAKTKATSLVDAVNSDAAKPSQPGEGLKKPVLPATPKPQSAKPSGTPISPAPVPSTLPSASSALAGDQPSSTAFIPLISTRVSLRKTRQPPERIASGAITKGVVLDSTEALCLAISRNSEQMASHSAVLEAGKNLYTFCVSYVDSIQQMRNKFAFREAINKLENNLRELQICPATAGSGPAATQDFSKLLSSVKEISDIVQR

For “EGFP-conjugated Syk (Syk-EGFP) isolated from DT40 chicken B cells stably expressing Syk-EGFP”, in data set [1], the “in vitro kinase assay, ELISA-based antiphosphotyrosine (4G10) chemifluorescence signal over time” value is “A substantial increase in signal over time was observed, demonstrating that SAStide was phosphorylated by Syk in vitro” and the “in vitro kinase assay, time-resolved Tb3+ luminescence, percent phosphorylation against time” value is “These data show that enzymatic phosphorylation of SAStide can be detected using time-resolved Tb^3+ luminescence”.

Take Recombinant Abl kinase (Millipore): the “in vitro kinase assay, terbium-sensitized luminescence, confirmed by ELISA-based Amplex Red chemifluorescent assay” value in data set [2] is given as “ABStide was specific for Abl against the Src-family kinase, Hck”. Further, in data set [1], the “in vitro kinase assay, ELISA-based antiphosphotyrosine (4G10) chemifluorescence signal” value is “none of which produced any significant signal for phosphopeptide”.

With Recombinant Lyn kinase (Millipore), in data set [1], the “in vitro kinase assay, ELISA-based antiphosphotyrosine (4G10) chemifluorescence signal” value is reported as “none of which produced any significant signal for phosphopeptide”.

In data set [3], “EGFP-conjugated Syk (Syk-EGFP) isolated from DT40 chicken B cells stably expressing Syk-EGFP (enzyme)” showed a phosphorylation of the biosensor peptide in Syk(-/-) DT40 cells reconstituted with Syk-EGFP, BCR stimulation by IgM, over unstimulated cells of 2 fold and a phosphorylation of the biosensor peptide in Syk(-/-) DT40 cells reconstituted with Syk-EGFP, H2O2 with or without BCR stimulation, over control of 12 fold.

Consider Recombinant Hck, for which the “in vitro kinase assay, terbium-sensitized luminescence, confirmed by ELISA-based Amplex Red chemifluorescent assay” value in data set [2] is listed as “ABStide was specific for Abl against the Src-family kinase, Hck”. Further, in data set [4], the “in vitro kinase assay, time-resolved Tb3+ luminescence, percent phosphorylation against time” value is “These data show that enzymatic phosphorylation of SFAStideA can be detected using time-resolved Tb^3+ luminescence”.

With Recombinant Src kinase (Millipore), the “in vitro kinase assay, ELISA-based antiphosphotyrosine (4G10) chemifluorescence signal” value in data set [1] is given as “none of which produced any significant signal for phosphopeptide”.
